Experiments:
[1] = target: T1, 6His-IscS (E. coli, UniProt P0A6B7 1-404)
T1 construct: IscS cysteine desulfurase, E. coli; IscS-coding region (primers OSD56/OSD57, start codon to stop codon, 1,248 bp fragment) between EcoRI and XhoI of pET6His-TEV; The vector's name tells a TEV site between the 6His tag and the protein; no cleavage is told; also called pET-6His-TEV-iscS; source: E. coli MG1655(DE3), purified (Ni-nitrilotriacetic acid agarose); not shown: 6His, N-terminal, kept

[2] = target: T1, 6His-IscS; experiment: native gel or EMSA; 6His-IscS 15 µM with 6His-ACP or variant 30 µM, 20 min at 37°C in 100 mM Hepes, 150 mM NaCl; non-denaturing 12% PAGE, Coomassie Blue; conditions: both partners purified

T1 sequence (P0A6B7 whole entry, the tested form may be a part): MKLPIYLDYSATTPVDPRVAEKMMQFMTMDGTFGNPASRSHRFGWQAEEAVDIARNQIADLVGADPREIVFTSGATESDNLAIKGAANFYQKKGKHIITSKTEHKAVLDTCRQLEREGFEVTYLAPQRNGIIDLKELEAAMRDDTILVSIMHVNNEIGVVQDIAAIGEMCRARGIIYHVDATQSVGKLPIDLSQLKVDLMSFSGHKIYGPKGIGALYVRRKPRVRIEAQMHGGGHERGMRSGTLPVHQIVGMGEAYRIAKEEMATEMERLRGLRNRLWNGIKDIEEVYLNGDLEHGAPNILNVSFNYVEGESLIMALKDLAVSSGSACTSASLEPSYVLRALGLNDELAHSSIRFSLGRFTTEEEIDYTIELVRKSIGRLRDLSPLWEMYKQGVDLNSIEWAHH

| cysteine desulfurase activity of IscS (methylene blue assay), relative to IscS alone [1] [fold] | binding result [2] | Molecule |
| --- | --- | --- |
| 3 | – | acylated 6His-ACP (from UniProt P0A6A8 1-78) (natural protein) |
| – | binds | 6His-ACP (natural protein, E. coli, UniProt P0A6A8 1-78, looked up, preparation expected to comprise a mixture of apo-ACP, holo-ACP (phosphopantetheine-bound ACP, on Ser36) and a minor fraction of acylated ACP, acyl carrier protein (ACP), E. coli; ACP-coding region (primers OSD146/OSD147, start codon to stop codon, 263 bp fragment) between EcoRI and XhoI of pET6His-TEV; The vector's name tells a TEV site between the 6His tag and the protein; no cleavage is told; also called ACPWT; wild-type ACP; source: E. coli MG1655(DE3), 10 mM pantothenate in the culture, purified (Ni-nitrilotriacetic acid agarose); …) MSTIEERVKKIIGEQLGVKQEEVTNNASFVEDLGADSLDTVELVMALEEEFDTEIPDEEAEKITTVQAAIDYINGHQA |
